{
  "source": "the DeepSol protein solubility set",
  "data": [
    {"test": "soluble on expression in E. coli; label from the status in PepcDB or PDB records", "values": [
      {"sequence": "SQSAEKFQGSHLLCPGCGHGIIVREVLNAVDGPIVLGNSTGCLEVCSAVYPHTSWDVPWIHIGFENGSTAISGVEAMYKALTNKGRYQGQKPKFVAFGGDGASYDIGLQFISGCMERGHDMTYICLDNENYANTGGQRSGSTPLGASTSTTPAGSVSFGKKEKKKDIVNIMASHGVPYVAQLSPNKWKDMNKKIKTALDTEGPCFINALSPCTTEWKFESNKTIELADMAVDSLMFPLFEIFNGRELKITYRPRNIIPVRDYLGAQKRFKHLFKKENEHIIEELQKDVNERWEYLQRREEAK", "soluble on expression in E. coli": "not soluble"},
      {"sequence": "SRFRFCGDLDCPDWVLAEISTLAKISSVKLRLLCSQVLKELLGQGIDYEKILKLTADAKFESGDVKATVAVLSFILSSAAKHSVDSDSLSSELQQLGLPKEHATSLCRCYEEKQSPLQEHLRACSLRVNRLASVGWRVDYTLSSSLLHSVEEPMVHLQLQVVPAPGTQAQPVSMSLSADKFQVLLAELKQAQTMMTALG", "soluble on expression in E. coli": "soluble"},
      {"sequence": "SRIVAPPKNYPDSSQHEWVSLTRISKNMQLAVIATEDQKFPHHYGVDFESLFDVISEAGDHGPSRGASTITQQAAKNVFLFPSHSYVRKAYELYFALLMELMWSKERILEVYLNVVEFGPGIYGAEAAAQNYFGVSAKQLSKWQAARLAVVLPNPYRIKVYPQSDYTARRTRWAMNQMSNLGSVQL", "soluble on expression in E. coli": "not soluble"},
      {"sequence": "SRPADLLQLVLLLDLPRDLGGMGCSSPPCECHQEEDFRVTCKDIQRIPSLPPSTQTLKLIETHLRTIPSHAFSNLPNISRIYVSIDVTLQQLESHSFYNLSKVTHIEIRNTRNLTYIDPDALKELPLLKFLGIFNTGLKMFPDLTKVYSTDIFFILEITDNPYMTSIPVNAFQGLCNETLTLKLYNNGFTSVQGYAFNGTKLDAVYLNKNKYLTVIDKDAFGGVYSGPSLLLPLGRKSLSFETQKAPRSSMPS", "soluble on expression in E. coli": "soluble"},
      {"sequence": "SRPRLSQLSVTDVTTSSLRLNWEAPPGAFDSFLLRFGVPSPSTLEPHPRPLLQRELMVPGTRHSAVLRDLRSGTLYSLTLYGLRGPHKADSIQGTARTL", "soluble on expression in E. coli": "soluble"},
      {"sequence": "SSNAKWDQWSSDWQTWNAKWDQWSNDWNAWRSDWQAWKDDWARWNQRWDNWAT", "soluble on expression in E. coli": "soluble"},
      {"sequence": "SSPATVTEPLKAEPAEAPVPLLRVSPSSLQCEPGYLLPNSPVLGTGGVTGYEYLTNILSSKVYDVAYETPLQKAPKLSERLGVNVLKREDLQPVFSFKIRGAYNMMAKLPKEQLEKGVICSSAGNHAQGVALSAQRLGCDAVIVMPVTTPDIKKSVKRLGATVVLVGDSYDEAQAYAKKRAESEGRTFIPPFDHPDVIVGQGTVGMEINRQLKDNIHAIFVPVGGGGLIAGIAAYLKRVAPDIKIIGVEPLDANALALSLHHGQRVMLDQVGGFADGVAVKVVGEETYRLCEELIDGVVLVGRDAICASIKDMFEEKRSILEPAGALALAGAEAYCKYYGLKGENVVAITSGANMNFDRLRLVTELADVGRQREAVLATFMPEDPGSFKKFAEMVGPMNITEFKYRYNSDKERALVLYSVGLHTILELEGMVERMESADLQTINLTDNDLVKDHLRHLMGGRTNVHNELLCRFTFPEKPGALMKFLDAFSPRNISLFHYRAQGDTGANVLVGIQVPPDEVVEFEGRADSLGYEYAMESLNEAYQLIMH", "soluble on expression in E. coli": "soluble"},
      {"sequence": "SSRVTYPLRKMREGAQDLAKGKFDTKIPILTQDEIGELATAFNQMGRQLNFHINALNQEKEQLSNILSSMADGVITINIDGTILVTNPPAERFLQAWYYEQNMNIKEGDNLPPEAKELFQNAVSTEKEQMIEMTLQGRSWVLLMSPLYAESHVRGAVAVLRDMTEERRLDKLREDFIANVSHELRTPISMLQGYSEAIVDDIASSEEDRKEIAQIIYDESLRMGRLVNDLLDLARMESGHTGLHYEKINVNEFLEKIIRKFSGVAKEKNIALDHDISLTEEEFMFDEDKMEQVFTNLIDNALRHTSAGGSVSISVHSVKDGLKIDIKDSGSGIPEEDLPFIFERFYKADKARTRGRAGTGLGLAIVKNIVEAHNGSITVHSRIDKGTTFSFYIPTKR", "soluble on expression in E. coli": "not soluble"},
      {"sequence": "SSSTLGKLSNQVEETLPLLKKVPANYFHICSAILMGFSLSKSATQVSAIHMDSKVDDHLIRGTEKSRLEPATQLFQNTKKIRLEDTNQENFTRIEGTGTGSLSGKALGSVVYVKESDGLEMTDVE", "soluble on expression in E. coli": "soluble"},
      {"sequence": "SSVWNLGRLNHVAIAVPDLEKAAAFYKNILGAQVSEAVPLPEHGVSVVFVNLGNTKMELLHPLGLDSPIAGFLQKNKAGGMHHICIEVDNINAAVMDLKKKKIRSLSEEVKIGAHGKPVIFLHPKDCGGVLVELEQA", "soluble on expression in E. coli": "soluble"},
      {"sequence": "STAKNSPKEFTASESEVCIKTFKEQMRLELELPKLPGNRPTSPKISPRSSPRNSPCFFRKLLVNKSIRQRRRFTVAHTCFDVENGPSPGRSPLDPQAGSSSGLVLHAAFPGHSQRRESFLYRSDSDYDLSPKAMSRNSSLPSEQHGDDLIVTPFAQVLASLRSVRNNFTLLTNLHGAPNKRSPAASQAPVSRVSLQVCDHRRLTKCRESKRC", "soluble on expression in E. coli": "not soluble"},
      {"sequence": "STGNAGEWCLMESDPGVFTELIKGFGCRGAQVEEIWSLEPENFEKLKPVHGLIFLFKWQPGEEPAGSVVQDSRLDTIFFAKQVINNACATQAIVSVLLNCTHQDVHLGETLSEFKEFSQSFDAAMKGLALSNSDVIRQVHNSFARQQMFEFDTKTSAKEEDAFHFVSYVPVNGRLYELDGLREGPIDLGACNQDDWISAVRPVIEKRIQKYSEGEIRFNLMAIVSDRKMIYEQKIAELQRQLAEEPMDTDQGNSMLSAIQSEVAKNQMLIEEEVQKLKRYKIENIRRKHNYLPFIMELLKTLAEHQQLIPLVEKAKEKQNAKKAQETK", "soluble on expression in E. coli": "soluble"},
      {"sequence": "STGVPATDLQQSIMKNVQPIELYFDNELVTDCSALGVYDNSYLVPLHLFEFDFDTIVLGGRHYKKAECEKVEFELEVNGDMVSSDACLLRVPSGPKVRNIVHLFTNEIELKKMTQVTGIMNSPHQARTVFFGSFLTVRKSILTSDGTVMPNVLSYAAQTSRGYCGAAIVAGSPARIIGIHSAGTGSVAFCSLVSKDALERTLPQKQ", "soluble on expression in E. coli": "not soluble"},
      {"sequence": "STKLLYLKPIQTGFPSDSDSRFVFSKLDSLSLRRQIPISISNSVLHSSLPAAKSLGLNVEVSESGMCSLNFRDEKTVTGAPELLCKTLYAWEAAISPHLAAERENATVEDSVVLQMIEKCLKEEMECGVKSEKSDLLCLVETAGGVASPGPSGTLQCDLYRPFRLPGILVGDGRLGGISGTIAAYESLKLRGYDIAAVVFEDHGLVNEVPLTSYLRNK", "soluble on expression in E. coli": "soluble"},
      {"sequence": "STPTSQALYSDFSPPEGLEELLSAPPPDLVAQRHHGWNPKDCSENIDVKEGGLCFERRPVAQSTDGVRGKRGYSRGLHAWEISWPLEQRGTHAVVGVATALAPLQADHYAALLGSNSESWGWDIGRGKLYHQSKGLEAPQYPAGPQGEQLVVPERLLVVLDMEEGTLGYSIGGTYLGPAFRGLKGRTLYPSVSAVWGQCQVRIRYMGERRVEE", "soluble on expression in E. coli": "soluble"},
      {"sequence": "SVACLSCRKRHIKCPGGNPCQKCVTSNAICEYLEPSKKIVVSTKYLQQLQKDLNDKTEENNRLKALLLER", "soluble on expression in E. coli": "soluble"},
      {"sequence": "SVELSAGQSIIADAAGALGPVNRDDAPAATWREGRVSFSGTPLMQALAEFERYGDTGLVIRDPAVAALKVNGSFDLRQIGAFARALPRVLPVQLSTRDGQTEII", "soluble on expression in E. coli": "not soluble"},
      {"sequence": "SVGHLHLQAMGDTREQSRDGLLDSPDSGLPPSPSPSPPFYALSPGTLDTRTTTEAPAAPSLFQTPPALEMRSRLLPVFFGESIEVDPEPAHEIRCNSEITYASERYFRDKIFYAPVPTVTAYSETIVAAPNCTWRSYRSQLTLEPRPRALRFGSTAIIFPKLARSSFRTTLHCSLGQPRHWYSSSLQLRRCGDPTPGPSCPDVL", "soluble on expression in E. coli": "soluble"},
      {"sequence": "SVLLQMTQRLALSDAHFRRICQLIYQRAGIVLADHKRDMVYNRLVRRLRALGLDDFGRYLSMLEANQNSAEWQAFINALTTNLTAFFREAHHFPILAEHARRRHGEYRVWSAAASTGEEPYSIAITLADALGMAPGRWKVFASDIDTEVLEKARSGIYRLSELKTLSPQQLQRYFMRGTGPHEGLVRVRQELANYVEFSSVNLLEKQYNVPGPFDAIFCRNVMIYFDKTTQEDILRRFVPLLKPDGLLFAGHSENFSNLVREFSLRGQTVYALS", "soluble on expression in E. coli": "soluble"},
      {"sequence": "SVQNPVEVSCSLQTQIFVFTPGASSVTIIWWVCFLTSVSMSAQTSPAEKGLNPGLMCQESYACSGTDEAIFECDECCSLQCLRCEEELHRQERLRNHERIRLKPGHVPYCDLCKGLSGHLPGVRQRAIVRCQTCKINLCLECQKRTHSGGNKRRHPVTVYNVSNLQESLEAEEMDEETKRKKMTEKVVSFLLVDENEEIQVTNEEDFIRKLDCKPDQHLKVVSIFGNTGDGKSHTLNHTFFYGREVFKTSPTQESCTVGVWAAYDPVHKVAVIDTEGLLGATVNLSQRTRLLLKVLAISDLVIYRTHADRLHNDLFKFLGDASEAYLKHFTKELKATTARCGLDVPLSTLGPAVIIFHETVHTQLLGSDHPSEVPEKLIQDRFRKLGRFPEAFSSIHYKGTRTYNPPTDFSGLRRALEQLLENNTTRSPRHPGVIFKALKALSDRFSGEIPDDQMAHSSFFPDEYFTCSSLCLSCGVGCKKSMNHGKEGVPHEAKSRCRYSHQYDNRVYTCKACYERGEEVSVVPKTSASTDSPWMGLAKYAWSGYVIECPNCGVVYRSRQYWFGNQDPVDTVVRTEIVHVWPGTDGFLKDNNNAAQRLLDGMNFMAQSVSELSLGPTKAVTSWLTDQIAPAYWRPNSQILSCNKCATSFKDNDTKHHCRACGEGFCDSCSSKTRPVPERGWGPAPVRVCDNCYEARNVQLAVTEAQVDDEGGTLIARKVGEAVQNTLGAVVTAIDIPLGLVKDAARPAYWVPDHEILHCHNCRKEFSIKLSKHHCRACGQGFCDECSHDRRAVPSRGWDHPVRVCFNCNKKPGDL", "soluble on expression in E. coli": "soluble"},
      {"sequence": "SWYIEEDLEKVNSNYFEEKDYELCRNELETTILDSVMKRVKGLEKVGIIYSGGVDSTLISKLASEYCEVILYSVGSENSEDLIYAERAAKDMGLDFRKKIISEDEFEEYVVKVAKAIDELDVMKLSVGIPILAASEMAKEDGIKVLLSGQGADELFAGYNRYQRILNEKGEDGLKESIISDVFDIHKINLERDDHCTMANGVELRVPFLDKFVIDVGLSIPVEYKIEEPRKKILRDIASKYVPDYIAQRPKKAAQYGSGSEKM", "soluble on expression in E. coli": "not soluble"},
      {"sequence": "SYTEVRELVNFVCRYLFGHIPRRPVGIFGAELGNYLVSHFSSTWDVHHPKNGEMKRMINTTTSLCFASSAEEAGVPPSDVLRLLPTNMIIFANPGHVFVRLSENGIETPIWIGDVNCDENYQSVPEYVVRTAAIRAEPCSNLGAAGKSVLVGKKPLLTNDKAALEMVNTMYSPLAREKCDDINANLSHLREMYPFRFVYKPSSAQTFSGVEFSQTRFGSSKSRPDLQTMDVIKYLSSQQVSSSSSPSFTYSSINDQMRYSPRF", "soluble on expression in E. coli": "soluble"},
      {"sequence": "SYYHHHHHHLESTSLYKKAGLMSTPLQGIKVLDFTGVQSGPSCTQMLAWFGADVIKIERPGVGDVTRHQLRDIPDIDALYFTMLNSNKRSIELNTKTAEGKEVMEKLIREADILVENFHPGAIDHMGFTWEHIQEINPRLIFGSIKGFDECSPYVNVKAYENVAQAAGGAASTTGFWDGPPLVSAAALGDSNTGMHLLIGLLAALLHREKTGRGQRVTMSMQDAVLNLCRVKLRDQQRLDKLGYLEEYPQYPNGTFGDAVPRGGNAGGGGQPGWILKCKGWETDPNAYIYFTIQEQNWENTCKAIGKPEWITDPAYSTAHARQPHIFDIFAEIEKYTVTIDKHEAVAYLTQFDIPCAPVLSMKEISLDPSLRQSGSVVEVEQPLRGKYLTVGCPMKFSAFTPDIKAAPLLGEHTAAVLQELGYSDDEIAAMKQNHAI", "soluble on expression in E. coli": "soluble"}
    ]}
  ]
}
